Sequences and labels used below:
B1: R2-009 (antibody, V domains shown)
VH: EVQLLQSGGGLVKPGGSLRLSCAASGFTFSSYAMSWVRQAPGKGLEWVSYISDDGSLKYYADSVKGRFTISRDNSKNTLYLQMNSLRAEDTAVYYCARHPYWYGGQLDLWGQGTLVTVSS
VL: SYVLTQPPSVSVAPGKTARITCSGDSLGSYFVHWYQQKPGQSPVLVIYDDSKRPSGIPERFSGSNSKNTATLTISGTQAMDEADYYCSAFTHNSDVFGGGTKLTVL
notes: as the VH of m20 (R2-001_HC); as the VL of m20 (R2-001_LC) with G68K (Kabat); only the variable regions are written; source: HEK293, transient, purified from conditioned medium (protein A, TMAE, HIC)
B2: R1-014 (antibody, V domains shown)
VH: EVQLLQSGGGLVKPGGSLRLSCAASGFTFSSYAMSWVRQAPGKGLEWVSYISDDGSLKYYADSVKGRFTISRDNSKNTLYLQMNSLRAEDTAVYYCARHPYWYGGQLDLWGQGTLVTVSS
VL: SYELTQPPSVSVSPGQRASITCSGDSLGSYFVHWYQQKPGQSPVLVIYDDSNRPSGIPERFSGSNSGNTATLTISGTQAMDEADYYCSAFTHNSDVFGGGTKLTVL
notes: only the variable regions are written; source: HEK293, transient, purified from conditioned medium (protein A, TMAE, HIC)
B3: R1-012 (antibody, V domains shown)
VH: EVQLLQSGGGLVKPGGSLRLSCAASGFTFSSYAMSWVRQAPGKGLEWVSYISDDGSLKYYADSVKGRFTISRDNSKNTLYLQMNSLRAEDTAVYYCARHPYWYGGQLDLWGQGTLVTVSS
VL: SYVLTQPPSVSVSPGQTASITCSGDSLGSYFVHWYQQKPGQSPVLVIYDDSNRPSGIPERFSGSNSGNTATLTISGTQAMDEADYYCSAFTHNSDVFGGGTKLTVL
notes: Kabat position; only the variable regions are written; source: HEK293, transient, purified from conditioned medium (protein A, TMAE, HIC)
B4: R1-013 (antibody, V domains shown)
VH: EVQLLQSGGGLVQPGGSLRLSCAASGFTFSSYAMSWVRQAPGKGLEWVSYISDDGSLKYYADSVKGRFTISRDNSKNTLYLQMNSLRAEDTAVYYCARHPYWYGGQLDLWGQGTLVTVSS
VL: SYELTQPPSVSVSPGQRASITCSGDSLGSYFVHWYQQKPGQSPVLVIYDDSNRPSGIPERFSGSNSGNTATLTISGTQAMDEADYYCSAFTHNSDVFGGGTKLTVL
notes: as for B2
B5: R2-007 (antibody, V domains shown)
VH: EVQLLQSGGGLVKPGGSLRLSCAASGFTFSSYAMSWVRQAPGKGLEWVSYISDDGSLKYYADSVKGRFTISRDNSKNTLYLQMNSLRAEDTAVYYCARHPYWYGGQLDLWGQGTLVTVSS
VL: SYVLTQPPSVSVAPGKTARITCSGDSLGSYFVHWYQQKPGQSPVLVIYDDSKRPSGIPERFSGKNSGNTATLTISGTQAMDEADYYCSAFTHNSDVFGGGTKLTVL
notes: as the VH of m20 (R2-001_HC); as the VL of m20 (R2-001_LC) with S65K (Kabat); only the variable regions are written; source: HEK293, transient, purified from conditioned medium (protein A, TMAE, HIC)
B6: R1-004 (antibody, V domains shown)
VH: EVQLLESGGGLVQPGGSLRLSCRASGFTFSSYAMSWVRQAPGKGLEWVSYISDDGSLKYYADSVKGRFTISRDNSKNTLYLQMNSLRAEDTAVYYCARHPYWYGGQLDLWGQGTLVTVSS
VL: SYELTQPPSVSVSPGQTASITCSGDSLGSYFVHWYQQKPGQSPVLVIYDDSNRPSGIPERFSGSNSGNTATLTISGTQAMDEADYYCSAFTHNSDVFGGGTKLTVL
notes: VL of AB-001 (AB-001_LC); only the variable regions are written; source: HEK293, transient, purified from conditioned medium (protein A, TMAE, HIC)
B7: R2-008 (antibody, V domains shown)
VH: EVQLLQSGGGLVKPGGSLRLSCAASGFTFSSYAMSWVRQAPGKGLEWVSYISDDGSLKYYADSVKGRFTISRDNSKNTLYLQMNSLRAEDTAVYYCARHPYWYGGQLDLWGQGTLVTVSS
VL: SYVLTQPPSVSVAPGKTARITCSGDSLGSYFVHWYQQKPGQSPVLVIYDDSKRPSGIPERFSGSNKGNTATLTISGTQAMDEADYYCSAFTHNSDVFGGGTKLTVL
notes: as the VH of m20 (R2-001_HC); as the VL of m20 (R2-001_LC) with S67K (Kabat); only the variable regions are written; source: HEK293, transient, purified from conditioned medium (protein A, TMAE, HIC)
B8: R1-008 (antibody, V domains shown)
VH: EVQLLESGGGLVQPGGSLRLSCAASGFTFSSYAMSWVRQAPGKGLEWVSYISDDGSLKYYADSVKGRFTISRDNSKNTLYLQMNSLRAEDTAVYYCAKHPYWYGGQLDLWGQGTLVTVSS
VL: SYVLTQPPSVSVSPGQTASITCSGDSLGSYFVHWYQQKPGQSPVLVIYDDSNRPSGIPERFSGSNSGNTATLTISGTQAMDEADYYCSAFTHNSDVFGGGTKLTVL
notes: VH of AB-001 (AB-001_HC); Kabat position; only the variable regions are written; source: HEK293, transient, purified from conditioned medium (protein A, TMAE, HIC)
B9: R1-015 (antibody, V domains shown)
VH: EVQLLQSGGGLVKPGGSLRLSCAASGFTFSSYAMSWVRQAPGKGLEWVSYISDDGSLKYYADSVKGRFTISRDNSKNTLYLQMNSLRAEDTAVYYCARHPYWYGGQLDLWGQGTLVTVSS
VL: SYELTQPPSVSVSPGQTASITCSGDSLGSYFVHWYQQKPGQSPVLVIYDDSNRPSGIPERFSGSNSGNTATLTISGTQAMDEADYYCSAFTHNSNVFGGGTKLTVL
notes: as for B2
B10: R1-009 (antibody, V domains shown)
VH: EVQLLESGGGLVQPGGSLRLSCAASGFTFSSYAMSWVRQAPGKGLEWVSYISDDGSLKYYADSVKGRFTISRDNSKNTLYLQMNSLRAEDTAVYYCAKHPYWYGGQLDLWGQGTLVTVSS
VL: SYELTQPPSVSVSPGQRASITCSGDSLGSYFVHWYQQKPGQSPVLVIYDDSNRPSGIPERFSGSNSGNTATLTISGTQAMDEADYYCSAFTHNSDVFGGGTKLTVL
notes: VH of AB-001 (AB-001_HC); only the variable regions are written; source: HEK293, transient, purified from conditioned medium (protein A, TMAE, HIC)
B11: R1-017 (antibody, V domains shown)
VH: EVQLLESGGGLVKPGGSLRLSCAASGFTFSSYAMSWVRQAPGKGLEWVSYISDDGSLKYYADSVKGRFTISRDNSKNTLYLQMNSLRAEDTAVYYCARHPYWYGGQLDLWGQGTLVTVSS
VL: SYELTQPPSVSVSPGQRASITCSGDSLGSYFVHWYQQKPGQSPVLVIYDDSNRPSGIPERFSGSNSGNTATLTISGTQAMDEADYYCSAFTHNSDVFGGGTKLTVL
notes: as for B2

This assay deals with T1, human PDGF-BB (platelet derived growth factor B homodimer) (human, UniProt P01127).
T1 construct: Platelet derived growth factor B, human, homodimer, bought from PeproTech; the printed catalogue number may stand for 100-14B; source: bought: PeproTech, Catalog 100-148
T1 sequence (P01127 82-190): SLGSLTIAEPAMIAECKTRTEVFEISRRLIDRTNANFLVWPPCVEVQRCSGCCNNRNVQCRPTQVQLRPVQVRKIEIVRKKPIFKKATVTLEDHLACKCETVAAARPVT
Kind of assay: SPR; Biacore T200, off-rate screen; antibody captured (~70 to 100 RU) by anti-human IgG amine-coupled to a CM5 chip; human PDGF-BB injected at a single 2.5 nM for 170 s, dissociation 300 s; HBS-EP+ N (10 mM HEPES, 500 mM NaCl, 3 mM EDTA, 0.05% Tween20, pH 7.4); 25 C. Conditions: both partners purified. In general terms: SPR reads the build-up and loss of mass on a sensor chip optically.
A word on the koff: it is the first-order rate constant of dissociation. In turn, B1 came in with a koff of 0.000265 s⁻¹.

Turning to B2, the koff stood at 0.000405 s⁻¹.

In turn, B3 returned a koff of 0.000304 s⁻¹.

For B4, the koff is 0.000297 s⁻¹.

B5 showed a koff of 0.000401 s⁻¹.

As to B6, the koff is 0.000258 s⁻¹.

Molecule B7 gave a koff of 0.000396 s⁻¹.

In turn, B8 yielded a koff of 0.000533 s⁻¹.

For the molecule B9, the koff was 0.000752 s⁻¹.

With B10, the off-rate constant (koff) is 0.000393 s⁻¹.

Regarding B11, the koff came to 0.000471 s⁻¹.

The record behind these values is paper PMC7205207, “Modeling and mitigation of high-concentration antibody viscosity through structure-based computer-aided protein design” (PLoS ONE, 2020).
